US6808930B1, “Therapeutic agents” (priority 1997, dated 2004)

How the values were obtained:
[1] = tested on: A549 cells; experiment: Cell surface binding of 125I-labelled protein, cell associated radioactivity; set-up: species or system human; conditions: 30 min exposure to 2×10^6 cpm of 125I-labelled protein
Description: (§1) Cell surface binding of MAL was also quantitated as the cell associated radioactivity during the first 30 min after addition of ^125I-labelled MAL to the cells (FIG. 2B). […]

[2] = tested on: HRTEC cells; experiment: as above; set-up: species or system human; conditions: 30 min exposure to 2×10^6 cpm of 125I-labelled protein
Description: as §1

[3] = tested on: A549 cells; experiment: Subcellular fractionation of cells exposed to 125I-labelled protein; format: cell-based, human
Description: (§2) The intracellular distribution of MAL was further analysed in cells exposed to ^125I-labelled MAL with ^[…] α-lactalbumin and IgG as controls (FIG. 4). Subcellular fractions were prepared after mechanic disruption of the cells and the amount of radiolabelled MAL in each fraction was determined in relation to the total cell-associated radioactivity measured prior to disruption of the cells. Fraction P1 contained mostly cell nuclei, P2 contained plasma-Golgi-, ER-membranes and mitochondria, P3 contained small vesicles and the supernatant. Fraction S contained the cytosolic proteins. The purity of the fractions was determined by quantitation of specific markers (DNA, alkaline phosphatase, RNA and catalase).
(§3) Specifically, cellular subfractionation was performed as described (J. Graham., Isolation of subcellular organelles and membranes., p161-1019. In D. Rickwood ed., Centrifugation, a practical approach, 2nd ed. IRL Press, Washington D.C.). L1210, A549 or HRTEC cells in suspension (3×10^6 cells/ml, 100 μla were incubated with 1×10^6 cpr of ^125I-labelled MAL, ALA or IgG for various times at 37° C. The cells were washed three times with ice-cold PBS and the supernatants were discarded. The cells were suspended in 500 μl of homogenisation buffer (10 mM Tris-HCl, pH 7.8, 5 mM MgCl2 and 2 mM CaCl2 for L1210 cells and 0.15M NaCl, 2 mM EDTA, pH 7.5 for A549 cells), and homogenised by 50 strokes in a Dounce homogenizer (Thomas, Philadelphia, USA) with pestle size 415. Sucrose was added to a final concentration of […] and the homogenate was centrifuged at 100×g for 25 min at RT. The first pellet contained nuclei, large mitochondria and large sheets of plasma membrane. The remaining supernatant was further centrifuged at 12 000×g for 30 min at 4° C. resulting in a second pellet containing mitochondria endoplasmic reticulum, plasma membrane and cytoplasmic organelles. The supernatant was finally centrifuged at 150,000×g for 2 h at 4° C. resulting in a pellet containing small vesicles, endoplasmic reticulum and a supernatant containing cytosolic proteins.

[4] = tested on: HRTEC cells; experiment: as above; format: cell-based, human
Description: as §2, §3

[5] = tested on: A549 cells; experiment: Cell viability by trypan blue exclusion; format: cell-based, human
Description: (§4) Remaining cells were analysed for DNA fragmentation.

[6] = tested on: HRTEC cells; experiment: Cell viability by trypan blue exclusion; format: cell-based, human
Description: as §4

[7] = tested on: L1210 cells; experiment: DNA fragmentation by gel electrophoresis and FIGE; format: cell-based, murine
Description: as §4

[8] = tested on: A549 cells; experiment: Cell surface binding of biotinylated protein, flow cytometry; set-up: species or system human; conditions: biotinylated MAL, 30 min; second of three cell types (A549 by order)
Description: (§5) MAL, human α-lactalbumin (HLA) and immunoglobulin G were biotinylated according to the manufacturer's instructions or labelled with ^125I with the lactoperoxidase method. Proteins were dissolved in PBSA-T buffer (30 mM Na2HPO4, 120 mM NaCl, pH 7.4, with 0.1% NaAzid, 0.05% Tween-20) and 25 μl of protein (25 μg) was incubated with 2 μl of ^125([…]), 2 μl of lactoperoxidase (2.5 mg/ml) and 2 μl of H2O2 (diluted 1:2000 in PBS) for 2 min at room temperature. The reaction was stopped by the addition of 500 μl of PBSA-T. The labelled protein was purified on a PD-10 column. 500 μl fractions in PBSA-T were eluted and fractions containing radioactivity were stored at […]. […] L1210, A549 and HRTEC cells (3×10^6 cells/ml, 50 μl) were incubated in suspension with 50 μl of biotinylated MAL, ALA or BSA for various times at 37° C. The cells were washed with PBS by centrifugation at 320×g for 10 min and the supernatant was discarded. FITC-conjugated streptavidin (diluted 1:50 in PBS) was added and the cells were incubated for 30 min at room temperature. The cells were washed by centrifugation as above, suspended in 300 μl PBS and the surface fluorescence was analysed by flow cytometry on a Coulter Epics Profile II flow cytometer (Coulter Inc.), equipped with a 488 nm argon laser. Green fluorescence was detected with a 525 nm band pass filter. […]

[9] = tested on: HRTEC cells; experiment: as above; set-up: species or system human; conditions: biotinylated MAL, 30 min; third of three cell types (HRTEC by order)
Description: as §5

[10] = tested on: L1210, A549 and HRTEC nuclei; experiment: DNA fragmentation in isolated nuclei; format: cell-based
Description: Nuclei were purified from L1210, A549 and HRTEC cells and incubated with low concentrations of MAL (0.2 and 0.4 mg/ml). The formation of HMW and oligonucleosome length DNA fragments was examined.
A549, L1210 and HRTEC nuclei were isolated from homogenised cells. Pellet 1 from the homogenisation was washed twice in nuclei buffer for 20 min at 100×g and suspended in nuclei buffer for experiments. Rat liver nuclei was isolated.
A549, L1210 or HRTEC nuclei in suspension were placed in individual wells in a 24-well plate ([…]), mixed with MAL, α-lactalbumin, lactoferrin or BSA (100 μl in nucleus buffer), incubated at 37° C. for 1 hour (L1210,) or 2 hours (A549 and HRTEC), harvested by aspiration, analysed for DNA fragmentation as described above.

[11] = tested on: L1210 cells; experiment: Cell surface binding of 125I-labelled protein, cell associated radioactivity; set-up: species or system murine; conditions: 30 min exposure to 2×10^6 cpm of 125I-labelled protein
Description: as §1

[12] = isolated nuclei from the three cell types, 0.2 and 0.4 mg/ml

B1: MAL: protein complex from human milk casein containing oligomeric forms of α-lactalbumin; the apoptosis-inducing fraction (protein, UniProt P00709 20-142, looked up)
Alpha-lactalbumin: KQFTKCELSQLLKDIDGYGGIALPELICTMFHTSGYDTQAIVENNESTEYGLFQISNKLWCKSSQVPQSRNICDISCDKFLDDDITDDIMCAKKILDIKGIDYWLAHKALCTEKLEQWLCEKL
modifications: oligomeric form from milk casein
notes: protein complex from human milk casein containing oligomeric forms of α-lactalbumin; the apoptosis-inducing fraction
- cell surface binding, cell associated radioactivity [1]: 20 000 cpm
- cell surface binding, cell associated radioactivity [2]: 18 000 cpm
- total cell associated radioactivity ([3]; 24 h, denominator in brackets): 27000
- radioactivity in nuclear fraction (P1) ([3]; 24 h, numerator in brackets): 13700
- radioactivity in cytosolic fraction ([3]; final time-point): 6800 cpm
- radioactivity in pellet 2 ([3]; final time-point): 5100 cpm
- radioactivity in pellet 3 ([3]; final time-point): 1400 cpm
- share of radioactivity in cytosolic fraction ([3]; final time-point): 25%
- share of radioactivity in pellet 2 ([3]; final time-point): 19%
- share of radioactivity in pellet 3 ([3]; final time-point): 5%
- share of total cell associated radioactivity in nuclear fraction (P1) ([4]; 24 h, 125I-labelled): 16%
- total cell associated radioactivity ([4]; 24 h, denominator in brackets): 14000
- radioactivity in nuclear fraction (P1) ([4]; 24 h, numerator in brackets): 2200
- radioactivity in cytosolic fraction ([4]; final time-point): 8600 cpm
- radioactivity in pellet 2 ([4]; final time-point): 2100 cpm
- radioactivity in pellet 3 ([4]; final time-point): 1100 cpm
- share of radioactivity in cytosolic fraction ([4]; final time-point): 61%
- share of radioactivity in pellet 2 ([4]; final time-point): 15%
- share of radioactivity in pellet 3 ([4]; final time-point): 8%
- sensitivity to MAL-induced apoptosis [5]: intermediately sensitive
- cell viability ([6]; HRTEC cells, 24 h incubation with up to 4 mg/ml): remained fully viable
- sensitivity to MAL-induced apoptosis ([6]; non-transformed cultures (HRTEC), within the tested concentration range): resistant
- time at which fragmentation of DNA was first seen ([7]; 0.3 mg/ml): 6 h
- incubation time after which HMW DNA fragments were observed ([7]; 0.5 mg/ml): 30 min
- incubation time after which oligonucleosome length DNA fragments were detected ([7]; 0.5 mg/ml): three
- time at which fragmentation of DNA was seen ([7]; 0.75 mg/ml): 2 h
- fluorescence intensity of cell surface binding [8]: 13.4 times that of the streptavidin control
- fluorescence intensity of cell surface binding [9]: 8.5 times that of the streptavidin control
- induction of DNA fragmentation in isolated nuclei ([10]; isolated nuclei): could induce DNA fragmentation
- time after which formation of HMW DNA fragments was enhanced [10, 12]: one
- time after which formation of oligonucleosome length fragments was enhanced [10, 12]: 2 h
- cell surface binding, cell associated radioactivity [11]: 23 000 cpm
